In patent US6673915 (GENERAL HOSPITAL, dated 2004):

Target: T1, CC CKR3 stably expressed on HEK-293 cells (Example 10A) (human, UniProt P51677 1-355)
T1 sequence (looked up): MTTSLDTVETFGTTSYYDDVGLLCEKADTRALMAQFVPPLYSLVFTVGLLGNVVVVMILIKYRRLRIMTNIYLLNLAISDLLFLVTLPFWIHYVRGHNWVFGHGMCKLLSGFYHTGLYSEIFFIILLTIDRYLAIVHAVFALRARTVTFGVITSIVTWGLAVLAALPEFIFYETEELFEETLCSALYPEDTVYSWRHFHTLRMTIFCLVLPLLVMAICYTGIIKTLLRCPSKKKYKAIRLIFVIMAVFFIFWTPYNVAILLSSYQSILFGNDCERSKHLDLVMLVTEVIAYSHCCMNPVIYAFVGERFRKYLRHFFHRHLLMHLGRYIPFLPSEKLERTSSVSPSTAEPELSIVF
Assay: cell-based or functional assay

EC50 of calcium flux relative to eotaxin at CKR3: ~2 fold
B1: recombinant human MCP-4 with the mature N-terminal Gln (PeproTech) (ligand)
chain: not shown
